Values of other authors, collected in patent publication US20120107229A1, “NOVEL NANO-PROBES FOR MOLECULAR IMAGING AND TARGETED THERAPY OF DISEASES” (priority 2009, published 2012).

Biological target: T1, CD44 (Homo sapiens, UniProt P16070)
T1 construct: host or cells: melanoma cells (collagen fragment only)
T1 sequence (P16070 21-742, species assumed): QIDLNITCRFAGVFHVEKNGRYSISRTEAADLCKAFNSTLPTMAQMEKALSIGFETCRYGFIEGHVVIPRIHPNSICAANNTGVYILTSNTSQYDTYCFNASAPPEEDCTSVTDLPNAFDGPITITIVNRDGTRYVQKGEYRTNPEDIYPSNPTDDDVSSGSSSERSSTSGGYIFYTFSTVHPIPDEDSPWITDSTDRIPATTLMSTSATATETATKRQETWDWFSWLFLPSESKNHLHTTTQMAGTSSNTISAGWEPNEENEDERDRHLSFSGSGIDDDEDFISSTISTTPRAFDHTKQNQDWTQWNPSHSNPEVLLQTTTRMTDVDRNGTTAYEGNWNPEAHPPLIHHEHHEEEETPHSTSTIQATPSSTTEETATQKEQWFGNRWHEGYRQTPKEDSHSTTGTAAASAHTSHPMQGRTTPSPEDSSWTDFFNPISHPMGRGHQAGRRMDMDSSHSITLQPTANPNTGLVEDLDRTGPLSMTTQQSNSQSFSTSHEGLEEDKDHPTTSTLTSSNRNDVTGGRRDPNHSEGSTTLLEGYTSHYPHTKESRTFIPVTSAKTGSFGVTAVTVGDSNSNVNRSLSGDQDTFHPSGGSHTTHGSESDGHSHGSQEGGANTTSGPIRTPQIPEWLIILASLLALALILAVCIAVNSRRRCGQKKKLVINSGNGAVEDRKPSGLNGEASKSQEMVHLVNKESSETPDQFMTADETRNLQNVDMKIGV

Sequence	binding to CD44 on cells (melanoma cells)	share of the binding of CD44 to intact fibronectin (fibronectin digestion and fractionation studies)
GVKGDKGNPGWPGAP	found to bind with CD44 on melanoma cells	–
KNNQKSEPLIGRKKT	–	65.5%
